The experiment concerns the target FXa/TF/FVIIa.

On to “TFPI1-161 -117Gln (non-glycosylated variant of human tissue factor pathway inhibitor, first 161 amino acids, Asn117 replaced by Gln)”, for which the secreted FXa/TF/FVIIa-dependent chromogenic TFPI- activity came out at 1 U/ml·OD.
